From patent US20110059504A1 (GENERAL HOSPITAL, published 2011)
Read-outs that look alike come from different tables or passages of the source.

Tests used:
[1] = molecular target: T1, human myostatin (human, UniProt O14793 267-375, biotinylated in selections and radioactive assays (site not stated)); assay: cell-based or functional assay
T1 sequence (looked up): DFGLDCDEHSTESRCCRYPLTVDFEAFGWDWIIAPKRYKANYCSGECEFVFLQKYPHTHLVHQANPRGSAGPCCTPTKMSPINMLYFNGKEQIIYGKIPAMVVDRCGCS

[2] = molecular target: T1, human myostatin; assay: radioactive equilibrium binding assay
Method in brief: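 ³⁵S-labelled binder proteins (1 or 2 nM, in vitro translated) equilibrated with biotinylated human myostatin (0–100 nM) 30 min at 30 °C in PBS, 0.02% Triton X-100, pH 7.4; complexes captured on magnetic beads and counted. Affinity from one-site nonlinear binding fit; inhibition format used 20 or 25 nM myostatin with varying inhibitor.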

[3] = molecular target: T1, human myostatin; assay: radioactive equilibrium binding assay; remark: listed apart in the source
[4] = molecular target: T2, human β-NGF (human, UniProt P01138 122-241, biotinylated (site not stated)); assay: radioactive equilibrium binding assay
T2 construct: also called biotinylated human β-NGF; nerve growth factor
T2 sequence (P01138 122-241 limits assumed): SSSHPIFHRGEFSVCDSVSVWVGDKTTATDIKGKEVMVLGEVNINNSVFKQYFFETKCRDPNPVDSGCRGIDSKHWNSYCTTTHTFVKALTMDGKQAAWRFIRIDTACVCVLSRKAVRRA
Protocol: Affinities of selected F13β2 binders to biotinylated myostatin were determined in radioactive equilibrium binding assay (FIGS. 11A and 11B; Table 3). ³⁵S-labeled binder proteins from selection pools and single clones were produced in vitro in a rabbit reticulocyte lysate translation kit (Ambion) and purified on M2-agarose (Sigma). Varying concentrations of biotinylated human myostatin (0-100 nM) or other proteins (protein 1: 100 nM; peptide 1: 250 nM; protein 2: 50 nM) were incubated with a constant concentration of the purified binder protein (1 or 2 nM) at 30° C. for 30 min in buffer B (1×PBS, 0.02% Triton X-100 [pH 7.4]). The receptor-binder complexes were captured by using 25 μl of M280 or Protein A (Dynal) (protein 2) magnetic beads for 10 min at room temperature on a Kingfisher instrument (Thermo Fisher Scientific). The beads were washed five times with 100 μl buffer B, and the amount of ³⁵S-methionine remained on the beads was measured by scintillation counting. Data were analyzed by using the GraphPad Prism software (GraphPad Software, Inc., San Diego, Calif.), fitted with a one-site, nonlinear binding equation. For inhibition assay the binding of ³⁵S-labeled proteins to 20 or 25 nM of biotinylated human myostatin was performed in the presence of varying concentrations of inhibitor (human activin receptor IIB/Fc chimera (R&D Systems, Minneapolis, Minn.) (0-250 nM); protein 1 (100 nM), peptide 1 (250 nM), protein 2 (50 nM); proteins, produced in E. coli, M17, M7, M29, M21, M1-1, WT F13β2 (500 nM)).
Selected F13β2 binders were tested for binding to biotinylated β-NGF in radioactive equilibrium binding assay (FIGS. 21A and 21B; Table 4) according to the procedure described for myostatin binders. NGF at concentrations up to 100 nM was incubated with a constant concentration of the purified binder protein (1 or 2 nM) at 30° C. for 1 hour. Affinities to human β-NGF differed greatly between various binders.

[5] = molecular target: T2, human β-NGF; assay: radioactive equilibrium binding assay; remark: listed apart in the source
[6] = molecular target: T3, streptavidin beads (M-280 beads) (UniProt P22629 37-163, limits assumed); assay: radioactive equilibrium binding assay
T3 construct: Capture beads used as negative control
T3 sequence (P22629 37-163 limits assumed): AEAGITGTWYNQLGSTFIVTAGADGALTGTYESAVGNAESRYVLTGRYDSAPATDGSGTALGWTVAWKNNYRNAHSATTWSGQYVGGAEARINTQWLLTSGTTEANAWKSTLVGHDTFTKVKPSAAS

B1: M1-1, E. coli-produced (designed binder)
chain: MTIPEIIIKVRGTQVVGSDMTVIVEFTNPLKETLRNVWVHLDGPGVTRPMKKMFPAIPMNHKVQWEEVVRPWVSGHRKLIASMPQLFHIHVYGELDVQIQRRHHHHHH
With B1 as the binder, how does the “EC50 (read off the curve); blocking of myostatin-induced inhibition of MPC-11 proliferation” value [1] read?
Its value is about 20 nM.

B2: 45927-B3 (designed binder)
chain: MTIPEIIIKVRGTQVVGSDMTVIVEFTNPLKETLRNVWVHLDGPGVTRPMKKMFLKIPGCSTVQWEEVVRPWVSGHRKLIASMSMLGLPFSLRFIPVYGELDVQIQRRDYKDDDDK
notes: group M1-Aext; extended FG loop; also called Mext (clone ID)
How did the B max [2] turn out when B2 was run?
Its B max is 50.7%.

What about the Kd [2] of the same binder?
The Kd was 86.7 nM.

What about the Kd [3] of the same binder?
The Kd was 53 to 86 nM.

B3: 45927-A3 (designed binder)
chain: MTIPEIIIKVRGTQVVGSDMTVIVEFTNPLKETLRNVWVHLDGPGVTRPMKKMFLKILGCSTVQWEEVVRPWVSGHRKLIASMSMLGLPFSLRFIPVYGELDVQIQRRDYKDDDDK
notes: group M1-Aext
Which results are given for B3?
B max [2]: 36.4%; Kd [2]: 53.2 nM; Kd [3]: 53 to 86 nM

B4: 61362-B8 (I23L) (designed binder)
chain: MTIPEIIIKVRGTQVVGSDMTVLVEFTIPLQDILNVWVHLDGPGVTRPMKKMFFSIRMTPAVQWEEVVRPWVSGHRKLIASMSFHTHRHVYGELDVQIQRRDYKDDDDK
notes: group N4; I23L
Which results are given for B4?
B max [4]: 2.1%; Kd [4]: 3.8 nM; Kd [5]: < 100 nM; binding result [6]: no binding
